For one test, the target named is T1, mouse SLC34A2 (mouse, UniProt Q9DBP0 1-697).
T1 construct: whole, on cells
T1 sequence (looked up): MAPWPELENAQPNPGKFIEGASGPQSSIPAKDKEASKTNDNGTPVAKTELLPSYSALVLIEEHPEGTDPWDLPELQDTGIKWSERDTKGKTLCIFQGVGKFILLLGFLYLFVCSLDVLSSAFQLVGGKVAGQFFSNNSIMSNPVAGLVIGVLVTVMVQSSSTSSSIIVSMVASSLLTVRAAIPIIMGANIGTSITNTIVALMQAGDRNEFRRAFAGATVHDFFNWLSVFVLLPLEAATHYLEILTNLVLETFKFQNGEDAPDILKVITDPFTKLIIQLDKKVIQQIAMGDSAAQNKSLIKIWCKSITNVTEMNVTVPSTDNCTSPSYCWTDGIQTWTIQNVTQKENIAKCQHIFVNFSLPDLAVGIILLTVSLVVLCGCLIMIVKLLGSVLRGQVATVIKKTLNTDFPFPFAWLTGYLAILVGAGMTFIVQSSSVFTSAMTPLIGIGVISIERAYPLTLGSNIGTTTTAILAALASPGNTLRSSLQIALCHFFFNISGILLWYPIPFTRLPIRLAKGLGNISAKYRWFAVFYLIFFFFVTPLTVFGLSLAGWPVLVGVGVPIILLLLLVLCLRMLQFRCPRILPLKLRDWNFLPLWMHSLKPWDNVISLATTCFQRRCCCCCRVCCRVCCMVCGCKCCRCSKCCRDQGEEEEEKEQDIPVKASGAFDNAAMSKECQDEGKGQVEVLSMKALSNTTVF
Kind of test: FACS, HEK293/Mouse SLC34A2 cells. For orientation: A flow cytometer gives signals particle by particle.

The next test deals with T2, Rhesus SLC34A2 (Rhesus, UniProt F7HDA3 1-690).
T2 construct: whole, on cells
T2 sequence: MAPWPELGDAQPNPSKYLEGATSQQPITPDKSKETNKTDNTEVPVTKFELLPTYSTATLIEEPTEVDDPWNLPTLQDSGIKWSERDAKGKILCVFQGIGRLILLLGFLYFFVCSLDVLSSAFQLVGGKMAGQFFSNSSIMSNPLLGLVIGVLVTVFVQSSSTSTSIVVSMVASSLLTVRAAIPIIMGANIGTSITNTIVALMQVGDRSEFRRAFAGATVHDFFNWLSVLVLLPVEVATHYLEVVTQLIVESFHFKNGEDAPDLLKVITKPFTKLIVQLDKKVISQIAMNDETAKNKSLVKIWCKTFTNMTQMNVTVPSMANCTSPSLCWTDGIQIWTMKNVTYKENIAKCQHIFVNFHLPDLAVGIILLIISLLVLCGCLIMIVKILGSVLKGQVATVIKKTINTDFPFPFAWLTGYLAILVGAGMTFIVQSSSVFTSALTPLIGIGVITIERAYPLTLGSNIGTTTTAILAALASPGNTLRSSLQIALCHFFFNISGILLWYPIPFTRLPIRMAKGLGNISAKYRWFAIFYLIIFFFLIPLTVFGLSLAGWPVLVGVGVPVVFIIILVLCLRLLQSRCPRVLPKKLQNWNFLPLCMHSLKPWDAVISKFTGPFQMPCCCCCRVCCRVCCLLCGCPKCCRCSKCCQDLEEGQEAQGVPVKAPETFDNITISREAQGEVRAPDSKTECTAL
In words: FACS, HEK293/Rhesus SLC34A2 cells.

The target in test [1] is T3, human SLC34A2 (human, UniProt O95436 1-690).
T3 construct: whole, on cells; also called human solute carrier 34 A2; NaPi2b
T3 sequence (looked up): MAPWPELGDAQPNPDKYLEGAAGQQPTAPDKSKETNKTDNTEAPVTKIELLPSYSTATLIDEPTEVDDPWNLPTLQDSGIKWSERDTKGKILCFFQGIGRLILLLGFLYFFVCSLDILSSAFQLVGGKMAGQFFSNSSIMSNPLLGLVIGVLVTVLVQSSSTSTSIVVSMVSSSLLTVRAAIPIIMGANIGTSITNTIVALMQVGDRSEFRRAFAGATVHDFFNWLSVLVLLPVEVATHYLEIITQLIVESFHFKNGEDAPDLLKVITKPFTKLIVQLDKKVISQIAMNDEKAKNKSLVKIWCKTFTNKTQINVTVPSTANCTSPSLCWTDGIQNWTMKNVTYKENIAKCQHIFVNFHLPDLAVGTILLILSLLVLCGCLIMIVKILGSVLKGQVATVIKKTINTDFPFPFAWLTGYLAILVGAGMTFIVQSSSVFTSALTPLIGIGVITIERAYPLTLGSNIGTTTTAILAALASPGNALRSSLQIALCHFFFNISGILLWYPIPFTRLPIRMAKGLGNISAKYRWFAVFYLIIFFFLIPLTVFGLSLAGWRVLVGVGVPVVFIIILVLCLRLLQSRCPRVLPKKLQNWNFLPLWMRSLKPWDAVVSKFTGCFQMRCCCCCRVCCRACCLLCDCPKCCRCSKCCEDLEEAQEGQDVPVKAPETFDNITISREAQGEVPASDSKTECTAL
Kind of test: FACS, RMG-1 cells. A digest of the protocol: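 Flow-cytometric binding of chimeric antibodies (8-point, 4-fold dilutions from 200 nM) to RMG-1 cells, 60 min at 4° C, followed by fluorescent secondary antibody for 30 min at 4° C.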

The target in test [2] is T3, human SLC34A2. Kind of test: FACS, OVCAR3 cells.

B1: 62G10E4G8.p3.z15 hIgG1 (antibody, V domains shown)
VH: QVQLVQSGAEVVKPGASVKMSCKASGYTFPSYITHWVKQAPGQGLEWIGAIYPGNADTSYIQKFKGRATLTADKSTSTAYMELSSLRSEDTAVYYCARGTYGTSAWFTYWGQGTLVTVSS
VL: EIVLTQSPATLSVSPGERATLSCRARQNIGNNLYWYQQKPGQSPRLLIKYASQSISGIPSRFSGSGSGTDFTLTISSLQSEDFAVYFCQQSFSWPLTFGQGTKLEIK
notes: humanized hIgG1
With B1, the figures for the EC50 with mouse SLC34A2 and with Rhesus SLC34A2 were 5.74 nM and 1.4 nM, respectively.

B2: xi62G10E4G8 hIgG1 (antibody, V domains shown)
VH: QVQLQQSGAEVVKPGASVKMSCKASGYTFPSYITHWVKQTPGQGLEWIGAIYPGNGDTSYIQKFKGKATLTADKSSSTAYMQLSSLTSEDSAVYYCARGTYGTSAWFTYWGQGTLVTVSA
VL: DIVLTQSPATLSVTPGDSVSLSCRARQNIGNNLYWYQQKSHESPRLLIKYASQSISGIPSRFSGSGSGTDFTLTINSVETEDFGVYFCQQSFSWPLTFGAGTKLELK
notes: chimeric, hIgG1
Consider B2, for which, in the test with human SLC34A2 [1], the EC50 turned out to be 3.65 nM and the “Top (MFI)” value is 9370 MFI. Further, in the test with human SLC34A2 [2], the EC50 stood at 5.8 nM and the “Top (MFI)” value worked out at 71100 MFI.

B3: xi63A11D5B4 hIgG1 (antibody, V domains shown)
VH: QVQLQQPGAELVKPGASVKMSCRTSGYTFITYNMHWVKQTPGQGREWIGAIYPGNGDTSYNQKFKGKATLTADKSSSTAYMQLNSLTSEDSAVYYCSISTIITTGAVDYWGQGTSVTVAS
VL: DIVMTQSHKFMSTSVGDRVSITCKASQDVGTAVAWYQQKAGQSPKLLIYWTSTRHTGVPDRFTGSGSGTDFTLIIRSLQSEDLADYFCQQYSRIPLTFGSGTKLEIK
notes: chimeric, hIgG1
Take B3: the EC50 with human SLC34A2 [1] came out at 5.32 nM; with human SLC34A2 [2], 9.2 nM. Also, the “Top (MFI)” value turned out to be 9770 MFI with human SLC34A2 [1] and 78600 MFI with human SLC34A2 [2].

B4: 63A11D5B4.p1.z9 hIgG1 (antibody, V domains shown)
VH: QVQLVQSGAEVVKPGASVKMSCKTSGYTFITYNMHWVRQAPGQGLEWIGAIYPGSGDTSYNQKFKGRVTLTADKSTSTAYMELSSLRSEDTAVYYCSISTIITTGAVDYWGQGTLVTVSS
VL: DIQMTQSPSSLSASVGDRVTITCKASQDVGTAVAWYQQKPGKVPKLLIYWTSTRHTGVPSRFSGSGSGTDFTLTISSLQPEDVATYYCQQYSRIPLTFGGGTKVEIK
notes: humanized hIgG1
B4: the EC50 amounted to 5.38 nM with mouse SLC34A2 and 1.6 nM in the test with Rhesus SLC34A2.

B5: xi30H9B8F9 hIgG1 (antibody, V domains shown)
VH: QVQLQQPGAELVKPGASVKMSCKTSGYTFTTNNMHWVKQTPGQGLEWIGAIYPGNGATAYNQKFKGKATLTADKSSSTAYMQLSSLTSEASAVYYCARGMYGHGAMDYWGQGTSVIVSS
VL: DIVMTQSHKFMSRSVGDRVRITCKASQDVGTAVAWYQQKPGQSPKLLIYWATTRHSGVPDRFTGSGSGTDFIFTISNVQSEDLADYFCQQYSSNPLTFGAGTKLELK
notes: chimeric, hIgG1
For B5, in the test with human SLC34A2 [1], the EC50 was 0.99 nM and the “Top (MFI)” value was 9470 MFI. For the same molecule, in the test with human SLC34A2 [2], it took 1.1 nM to reach a half-maximal effect (EC50) and the “Top (MFI)” value stood at 69100 MFI.

B6: 91C9F1.p1.z7 hIgG1 (antibody, V domains shown)
VH: QVQLVQSGAEVKKPGSSVKVSCKTSGFFFTEYIIHWVRQAPGQGLEWIGGIIPNNDVTNYKQNFRGRVTLTADKSTSTAYMELSSLRSEDTAVYYCARWRNAYYSAMDSWGQGTTVTVSS
VL: DIQVTQSPSSLSTSVGDRVTITCTASQDVGTAVAWYQQKPGKSPKLLIYWASTRHTGVPERFTGSGSGTDFTLTISSVQPEDVATYFCQQYRTSPLTFGVGTKVEIK
notes: humanized hIgG1
Take B6: the figures for the EC50 with mouse SLC34A2 and with Rhesus SLC34A2 were 3.34 nM and 4.2 nM, respectively.

B7: xi91C9F1 hIgG1 (antibody, V domains shown)
VH: EVQLQQSGPELVKPGTSVKISCKTSGFFFTEYIIHWVKQSHGRSLEWIGGIIPNNGVTNYKQNFRGKAALTADKSSNTAYMELRSLTSEDSAVYYCARWRNGYYSAMDSWGQGTSVTVSS
VL: DIVVTQSHKFMSTSLGDRVSITCTASQDVGTAVAWYQQKPGHSPKLLIYWASTRHTGVPERFTGSGSGTDFTLTITNVQSEDLADYFCQQYRTSPLTFGVGTKLELK
notes: chimeric, hIgG1
On to B7, for which, in the test with human SLC34A2 [1], the EC50 worked out at 1.3 nM and the “Top (MFI)” value turned out to be 9230 MFI. Moreover, in the test with human SLC34A2 [2], the EC50 was determined as 1.6 nM and the “Top (MFI)” value is 63300 MFI.

B8: 30H9B8F9.p1.z5 hIgG1 (antibody, V domains shown)
VH: QVQLVQSGAEVKKPGASVKVSCKTSGYTFTTNNMHWVRQAPGQGLEWIGAIYPGSGATAYNQKFKGRVTMTADTSTSTVYMELSSLRSEDTAVYYCARGMYGHGAMDYWGQGTLVTVSS
VL: DIQLTQSPSFLSASVGDRVTITCKASQDVGTAVAWYQQKPGKAPKLLIYWATTRHSGVPSRFSGSGSGTEFTLTISSLQPEDFATYYCQQYSSNPLTFGQGTKLEIK
notes: humanized hIgG1
Consider B8, for which the concentration for a half-maximal effect (EC50) with mouse SLC34A2 is 2.06 nM; with Rhesus SLC34A2, 0.7 nM.

For orientation: EC50 means the midpoint of the concentration-response curve. Higher therefore signals a need for much substance.
